# EP3964526A1 (Novartis AG, dated 2022)
# Target: T1, recombinant human VEGF165 (PeproTech EC Ltd.) (human, UniProt P15692-4 27-191)
# T1 construct: Amine-coupled to a CM4 sensor chip; also called hVEGF165
# Test: SPR BIAcore T100, hVEGF165 amine-coupled on CM4 chip, scFv as analyte
# T1 sequence (P15692 other isoform, or with tags, fused parts or gaps limits assumed): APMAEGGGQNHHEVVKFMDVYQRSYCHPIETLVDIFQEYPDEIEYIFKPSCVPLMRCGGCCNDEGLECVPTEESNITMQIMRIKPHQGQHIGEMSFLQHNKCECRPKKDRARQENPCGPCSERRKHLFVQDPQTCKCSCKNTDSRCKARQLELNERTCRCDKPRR
Binder,Kd,koff,kon
435-max (scFv) EIVMTQSPSTLSASVGDRVIITCQASQSIGSSLAWYQQKPGKAPKLLIYTAANLASGVPSRFSGSRSGAEFTLTISSLQPDDFATYYCQNFATSDTVTFGQGTKLTVLGGGGGSGGGGSGGGGSGGGGSEVQLVESGGGLVQPGGSLRLSCKASGFSLNTNYWMCWVRQAPGKGLEWVGCMYTGSYNRAYYASWAKGRFTSSKDTSKNTVYLQMNSLRAEDTAVYYCAKGSNWYSDLWGQGTLVTVSS,4.53 nM,0.000755 s⁻¹,167000 M⁻¹ s⁻¹
610-min (scFv) EIVMTQSPSTLSASVGDRVIITCQASQSISSWLSWYQQKPGKAPKLLIYQASTLASGVPSRFSGSGSGAEFTLTISSLQPDDFATYYCQNNYGFRSYGGAFGQGTKLTVLGGGGGSGGGGSGGGGSGGGGSEVQLVESGGGLVQPGGSLRLSCAASGIDFSGAYYMGWVRQAPGKGLEWVSYIDYDGDRYYASWAKGRFTISRDNSKNTLYLQMNSLRAEDTAVYYCAKSDYSSGWGTDIWGQGTLVTVSS,10.6 nM,0.00265 s⁻¹,251000 M⁻¹ s⁻¹
610-max (scFv) EIVMTQSPSTLSASVGDRVIITCQASQSISSWLSWYQQKPGKAPKLLIYQASTLASGVPSRFSGSGSGTEFTLTISSLQPDDFATYYCQNNYGFRSYGGAFGQGTKLTVLGGGGGSGGGGSGGGGSGGGGSEVQLVESGGGLVQPGGSLRLSCTASGIDFSGAYYMGWVRQAPGKGLEWVGYIDYDGDRYYASWAKGRFTISKDTSKNTVYLQMNSLRAEDTAVYYCARSDYSSGWGTDIWGQGTLVTVSS,1.18 nM,0.000601 s⁻¹,509000 M⁻¹ s⁻¹
375-min (scFv) EIVMTQSPSTLSASVGDRVIITCQASENINIWLSWYQQKPGKAPKLLIYQASKLASGVPSRFSGSGSGAEFTLTISSLQPDDFATYYCQNNYSYNRYGAPFGQGTKLTVLGGGGGSGGGGSGGGGSGGGGSEVQLVESGGGLVQPGGSLRLSCAASGFSFTTTDYMCWVRQAPGKGLEWVSCILAGDGSTYYANWAKGRFTISRDNSKNTLYLQMNSLRAEDTAVYYCAKSDPASSWSFALWGQGTLVTVSS,5.41 nM,0.00501 s⁻¹,927000 M⁻¹ s⁻¹
375-max (scFv) EIVMTQSPSTLSASVGDRVIITCQASENINIWLSWYQQKPGKAPKLLIYQASKLASGVPSRFSGSGSGTQFTLTISSLQPDDFATYYCQNNYSYNRYGAPFGQGTKLTVLGGGGGSGGGGSGGGGSGGGGSEVQLVESGGGLVQPGGSLRLSCKASGFSFTTTDYMCWVRQAPGKGLEWVGCILAGDGSTYYANWAKGRFTGSKDTSKNTVYLQMNSLRAEDTAVYYCARSDPASSWSFALWGQGTLVTVSS,2.68 nM,0.00655 s⁻¹,2.44e+06 M⁻¹ s⁻¹
509-max (scFv) EIVMTQSPSTLSASVGDRVIITCQASQNIRIWLSWYQQKPGKAPKLLIYKASTLESGVPSRFSGSGSGTEFTLTISSLQPDDFATYYCQNNAHYSTNGGTFGQGTKLTVLGGGGGSGGGGSGGGGSGGGGSEVQLVESGGGLVQPGGSLRLSCTASGFSLSSYYMCWVRQAPGKGLEWVGCLDYVGDTDYASWAKGRFTISKDASKNTVYLQMNSLRAEDTAVYYCARTDDSRGWGLNIWGQGTLVTVSS,1.21 nM,0.00272 s⁻¹,2.26e+06 M⁻¹ s⁻¹
534-max (scFv) EIVMTQSPSTLSASVGDRVIITCQASQSINIWLSWYQQKPGKAPKLLIYKESTLASGVPSRFSGSGSGTEFTLTISSLQPDDFATYYCQNNYDSGNNGFPFGQGTKLTVLGGGGGSGGGGSGGGGSGGGGSEVQLVESGGGLVQPGGSLRLSCTASGFSLSYYYMSWVRQAPGKGLEWVGIIGPGDYTDYASWAKGRFTISKDTSKNTVYLQMNSLRAEDTAVYYCARGDDNSGWGEDIWGQGTLVTVSS,9.21 nM,0.0173 s⁻¹,1.88e+06 M⁻¹ s⁻¹

# Target: T2, Human TNFa N-his trimers (human, UniProt P01375 77-233)
# T2 construct: Captured at 5 nM on an NTA sensor chip by the N-terminal his-tags; also called His-tagged TNF (produced at ESBATech); not shown: N-terminal his-tag
# Test: SPR BIAcore T100, His-tagged human TNF trimers captured on NTA chip, scFv as analyte
# T2 sequence (P01375 77-233 limits assumed): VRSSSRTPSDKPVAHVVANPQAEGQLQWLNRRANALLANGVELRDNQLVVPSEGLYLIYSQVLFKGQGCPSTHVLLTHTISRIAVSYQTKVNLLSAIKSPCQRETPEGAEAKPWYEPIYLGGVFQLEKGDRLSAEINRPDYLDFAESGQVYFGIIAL
row,Binder,Kd
1,EP42_min (scFv) EIVMTQSPSTLSASVGDRVIITCQSTESVYKNNYLAWYQQKPGKAPKLLIYDASTLASGVPSRFSGSGSGAEFTLTISSLQPDDFATYYCAGYYRSGFGTANGSFGQGTKLTVLGGGGGSGGGGSGGGGSGGGGSEVQLVESGGGLVQPGGSLRLSCAASGFTFRNDAISWVRQAPGKGLEWVSYISDWGIKYYASWVKGRFTISRDNSKNTLYLQMNSLRAEDTAVYYCAKGAPGAGDNGIWGQGTLVTVSS,58.7 nM
2,EP19_max (scFv) EIVMTQSPSTLSASVGDRVIITCQASDNIYRGLAWYQQKPGKAPKLLIYDASTLQSGVPSRFSGSGSGTQFTLTISSLQPDDFATYYCLGVYGYSSDDGAAFGQGTKLTVLGGGGGSGGGGSGGGGSGGGGSEVQLVESGGGLVQPGGSLRLSCTVSGFSLNSNEISWVRQAPGKGLEWVGYIGNGGMTHYASWAKGRFTISRDTSKNTVYLQMNSLRAEDTAVYYCASSVEYTDLYYLNIWGQGTLVTVSS,2.91 nM
3,EP6_min (scFv) EIVMTQSPSTLSASVGDRVIITCQASESIYSGLAWYQQKPGKAPKLLIYQASTLASGVPSRFSGSGSGAEFTLTISSLQPDDFATYYCQQGFGTSNVENPFGQGTKLTVLGGGGGSGGGGSGGGGSGGGGSEVQLVESGGGLVQPGGSLRLSCAASGFSLSRYGVSWVRQAPGKGLEWVSTIGEAGRAYYANWARSRFTISRDNSKNTLYLQMNSLRAEDTAVYYCAKGEVFNNGWGAFNIWGQGTLVTVSS,106 nM
4,EP6_max (scFv) EIVMTQSPSTLSASVGDRVIITCQASESIYSGLAWYQQKPGKAPKLLIYQASTLASGVPSRFSGSGSGTDFTLAISSLQPDDFATYYCQQGFGTSNVENPFGQGTKLTVLGGGGGSGGGGSGGGGSGGGGSEVQLVESGGGLVQPGGSLRLSCTVSGFSLSRYGVSWVRQAPGKGLEWVGTIGEAGRAYYANWARSRSTISRDTSKNTVYLQMNSLRAEDTAVYYCARGEVFNNGWGAFNIWGQGTLVTVSS,0.512 nM
5,EP1_max (scFv) EIVMTQSPSTLSASVGDRVIITCQSTESVYKNNYLAWYQQKPGKAPKLLIYDASTLASGVPSRFSGSGSGTEFTLTISSLQPDDFATYYCAGYYRSGSGTANGSFGQGTKLTVLGGGGGSGGGGSGGGGSGGGGSEVQLVESGGGSVQPGGSLRLSCTVSGIDLSNDAISWVRQAPGKGLEWVAYISDWSIRYYANWAQGRFTISKDTSKNTVYLQMNSLRAEDTATYYCARGAPGAGDNGIWGQGTTVTVSS,56.9 nM
6,EP42_max (scFv) EIVMTQSPSTLSASVGDRVIITCQSTESVYKNNYLAWYQQKPGKAPKLLIYDASTLASGVPSRFSGSGSGTEFTLTISSLQPDDFATYYCAGYYRSGFGTANGSFGQGTKLTVLGGGGGSGGGGSGGGGSGGGGSEVQLVESGGGSVQPGGSLRLSCTVSGIDLRNDAISWVRQAPGKGLEWVSYISDWGIKYYASWVKGRFTISKDTSKNTVYLQMNSLRAEDTATYYCARGAPGAGDNGIWGQGTTVTVSS,3.46 nM
7,EP34_max (scFv) EIVMTQSPSTLSASLGDRVIITCQSSQSVYGNIWMAWYQQKSGKAPKLLIYQASKLASGVPSRFSGSGSGAEFSLTISSLQPDDFATYYCQGNFNTGDRYAFGQGTKLTVLGGGGGSGGGGSGGGGSGGGGSEVQLVESGGGLVQPGGSLRLSCTASGFTISRSYWICWVRQAPGKGLEWVACIYGDNDITPLYANWAKGRFPVSTDTSKNTVYLQMNSLRAEDTAVYYCARLGYADYAYDLWGQGTLVTVSS,0.0286 nM
8,EP15_min (scFv) EIVMTQSPSTLSASVGDRVIITCQASENIYTSLAWYQQKPGKAPKLLIYSASTLASGVPSRFSGSGSGAEFTLTISSLQPDDFATYYCQQGFATSNVENPFGQGTKLTVLGGGGGSGGGGSGGGGSGGGGSEVQLVESGGGLVQPGGSLRLSCAASGFTFSRYGVSWVRQAPGKGLEWVSAIGETGRAYYANWAKSRFTISRDNSKNTLYLQMNSLRAEDTAVYYCAKGEEFNNGWGAFNIWGQGTLVTVSS,262 nM
9,EP43_max (scFv) EIVMTQSPSTLSASVGDRVIIKCQASQSISDWLAWYQQKPGKAPKLLIYGASRLASGFPSRFSGSGSGAEFTLTISGLEPADFATYYCQQGWSDSYVDNLFGQGTKLTVLGGGGGSGGGGSGGGGSGGGGSEVQLVESGGGLVQPGGSLRLSCTVSGFSLSSGAMSWVRQAPGKGLEWVGVIISSGATYYASWAKGRFTISKDTSKNTVYLQMNSLRAEDTAVYYCARGGPDDSNSMGTFDPWGQGTLVTVSS,0.251 nM
10,EP35_max (scFv) EIVMTQSPSTLSASVGDRVIITCQASQSISNLLAWYQQKPGKAPKLLIVAASKLASGVPSRFSGSGSGTEFTLTISSLQPDDFATYYCQQGWSHTNVDNTFGQGTKLTVLGGGGGSGGGGSGGGGSGGGGSEVQLVESGGGSVQPGGSLRLSCTASGFSFSVGYWICWVRQAPGKGLEWVACIDAGTSGGTYYATWAKGRFTISKDTSKNTVYLQMNSLRAEDTATYYCARGVSSNGYYFKLWGQGTTVTVSS,0.194 nM
11,EP43_min (scFv) EIVMTQSPSTLSASVGDRVIITCQASQSISDWLAWYQQKPGKAPKLLIYGASRLASGVPSRFSGSGSGAEFTLTISSLQPDDFATYYCQQGWSDSYVDNLFGQGTKLTVLGGGGGSGGGGSGGGGSGGGGSEVQLVESGGGLVQPGGSLRLSCAASGFSLSSGAMSWVRQAPGKGLEWVSVIISSGATYYASWAKGRFTISRDNSKNTLYLQMNSLRAEDTAVYYCAKGGPDDSNSMGTFDPWGQGTLVTVSS,5540 nM
12,EP15_max (scFv) EIVMTQSPSTLSASVGDRVIITCQASENIYTSLAWYQQKPGKAPKLLIYSASTLASGVPSRFSGSGSGTEFTLTISSLQPDDFATYYCQQGFATSNVENPFGQGTKLTVLGGGGGSGGGGSGGGGSGGGGSEVQLVESGGGSVQPGGSLRLSCTVSGFSLSRYGVSWVRQAPGKGLEWVGAIGETGRAYYANWAKSRSTISRDTSKNTVYLQMNSLRAEDTATYYCARGEEFNNGWGAFNIWGQGTTVTVSS,1.48 nM

# Target: VEGF (as used in the VEGFR competition ELISA)
# Test: competition ELISA against hVEGR1, EC50 ratio to reference Luc
# Chain of VEGF (as used in the VEGFR competition ELISA) (P15692 whole entry): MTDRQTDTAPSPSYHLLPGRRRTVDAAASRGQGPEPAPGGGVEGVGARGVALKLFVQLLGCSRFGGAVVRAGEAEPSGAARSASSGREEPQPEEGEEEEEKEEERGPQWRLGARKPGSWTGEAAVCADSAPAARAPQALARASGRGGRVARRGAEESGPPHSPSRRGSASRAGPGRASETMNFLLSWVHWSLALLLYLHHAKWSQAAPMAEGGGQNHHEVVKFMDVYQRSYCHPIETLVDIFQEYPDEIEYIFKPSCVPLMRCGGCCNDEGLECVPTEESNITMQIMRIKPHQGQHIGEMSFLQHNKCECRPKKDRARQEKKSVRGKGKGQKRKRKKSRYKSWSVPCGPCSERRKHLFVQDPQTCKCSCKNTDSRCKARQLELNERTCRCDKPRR
row,Binder,Rel. activity hVEGR1 comp. ELISA (EC50Luc[nM]/EC50test[nM])
1,509-max (scFv) EIVMTQSPSTLSASVGDRVIITCQASQNIRIWLSWYQQKPGKAPKLLIYKASTLESGVPSRFSGSGSGTEFTLTISSLQPDDFATYYCQNNAHYSTNGGTFGQGTKLTVLGGGGGSGGGGSGGGGSGGGGSEVQLVESGGGLVQPGGSLRLSCTASGFSLSSYYMCWVRQAPGKGLEWVGCLDYVGDTDYASWAKGRFTISKDASKNTVYLQMNSLRAEDTAVYYCARTDDSRGWGLNIWGQGTLVTVSS,13 ratio
